We go through four molecules from patent publication US20170129921A1 (University of California, published 2017).

Like-named read-outs stand apart in the source and are kept apart here.

Test [1] concerns the target T1, C5a2-Venus (UniProt Q9P296 1-337). The test can be described thus: cell-based or functional assay.
In test [2] the target is T2, Human C5a receptor 2 (human, UniProt Q9P296 1-337).
T2 construct: whole, on cells; also used here for native C5a2 on human monocyte derived macrophages and for the human C5a2 of the DiscoveRx PathHunter kit; also called C5a2; C5L2
T2 sequence (Q9P296 whole entry): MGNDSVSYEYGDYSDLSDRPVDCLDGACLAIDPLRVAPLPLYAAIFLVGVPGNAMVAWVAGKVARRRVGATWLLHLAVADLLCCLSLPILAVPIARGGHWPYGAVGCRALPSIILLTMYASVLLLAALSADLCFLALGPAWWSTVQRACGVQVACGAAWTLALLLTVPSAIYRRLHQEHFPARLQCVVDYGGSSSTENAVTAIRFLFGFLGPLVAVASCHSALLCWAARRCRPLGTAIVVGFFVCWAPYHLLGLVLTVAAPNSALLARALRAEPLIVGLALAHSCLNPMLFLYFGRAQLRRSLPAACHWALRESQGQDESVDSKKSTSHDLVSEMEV
The test can be described thus: 125I-C5a displacement, SPA on Flp-In CHO-C5a2 membranes. How it is done:
P32 and P59 were previously shown to have no activity (either as an agonist or antagonist) up to a concentration of 100 μM, when the library was previously screened for activity at C3aR and C5a1²⁷.
(§1) C5a2 receptor binding studies were performed using a modification of a previously described scintillation proximity assay (SPA) method⁴⁸. Briefly, C5a2 SPA studies were performed in 96-well white isoplates with clear flat bottoms (Perkin Elmer, Waltham, Mass., USA). SPA beads (200 μg/well) were added, following the addition of various concentrations of competing ligands or buffer (6 pM to 500 μM) in a total volume of 80 μL of assay buffer (50 mM Tris-HCl, pH 7.4, 0.5% BSA, 5 mM MgCl₂, 1 mM CaCl₂). ¹²⁵I-C5a (˜20 pM) (specific activity, 2200 Ci mmol⁻¹) (Perkin Elmer) was added to C5a2 membrane preparations (˜2 μg/well). The final reaction volume per well comprised 20 μL of ligand/buffer, 20 μL of SPA beads, 20 μl of membrane and the assay was initiated by the addition of 20 μL of ¹²⁵I-C5a. The plate was then sealed using TopSeal-A (Perkin Elmer) sealing film and incubated with shaking for 1 h at room temperature. Radioligand binding was then assessed for 30 s/well using a 1450 Microbeta scintillation counter (Perkin Elmer).

Test [3] concerns the target T1, C5a2-Venus. Kind of test: cell-based or functional assay. The source holds these as a separate data set.
The target in test [4] is T3, C5a receptor 1 (human, UniProt P21730 1-350).
T3 construct: whole, on cells; Also used here for native C5a1 on human macrophages; also called C5a1; CD88
T3 sequence (looked up): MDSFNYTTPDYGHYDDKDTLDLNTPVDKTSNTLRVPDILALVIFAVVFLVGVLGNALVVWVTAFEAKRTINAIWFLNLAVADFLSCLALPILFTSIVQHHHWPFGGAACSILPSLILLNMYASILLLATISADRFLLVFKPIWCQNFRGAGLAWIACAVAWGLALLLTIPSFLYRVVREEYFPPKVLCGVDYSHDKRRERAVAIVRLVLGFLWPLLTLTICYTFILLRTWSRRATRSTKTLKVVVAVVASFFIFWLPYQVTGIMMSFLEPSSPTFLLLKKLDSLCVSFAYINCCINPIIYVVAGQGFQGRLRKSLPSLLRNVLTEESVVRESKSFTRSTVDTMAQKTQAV
The test can be described thus: 125I-C5a displacement on C5aR1 membranes.

The target in test [5] is T2, Human C5a receptor 2. Kind of test: 125I-C5a displacement, SPA on Flp-In CHO-C5a2 membranes. How it is done: To further address this issue, C5a2 SPA was used to test for the binding of C3a or C3a-des arg to C5a2.
as §1
The source holds these as a separate data set.

T1 sequence (Q9P296 whole entry): as the sequence (Q9P296 whole entry) above

B1: Human recombinant C5a (ligand, UniProt P01031 678-751, looked up)
chain: TLQKKIEEIAAKYKHSVVKKCCYDGACVNNDETCEQRAARISLGPRCIKAFTECCVVASQLRANISHKDMQLGR
notes: also called native C5a
For the molecule B1, the “C5a2-β-arrestin 2 BRET Recruitment (% of C5a)” value in test [1] was 100 % of C5a. Also, the Ki (commonly a dissociation constant, usually derived from enzyme kinetics or from competition with a known ligand) in test [2] came out at 0.0013 µM.

B2: Peptide P59, Ac-LIRLWR-OH (peptide)
peptide: Ac-LIRLWR-OH
notes: Synthetic, computationally designed hexapeptide based on the C-terminus of C5a
Take B2: the “C5a2-β-arrestin 2 BRET Recruitment (% of C5a)” value in test [1] was 52.9 % of C5a. For the same molecule, the “fold higher efficacy of β-arrestin 2 recruitment than the affinity for C5a2” value in test [3] is approximately 6 fold. The Ki came out at 466 µM in test [4] and 48 µM in test [2].

B3: Human isolated C5a-des Arg (ligand, UniProt P01031 678-750, looked up)
chain: TLQKKIEEIAAKYKHSVVKKCCYDGACVNNDETCEQRAARISLGPRCIKAFTECCVVASQLRANISHKDMQLG
As to B3, the affinity in test [5], expressed as Ki, was 1.5 nM.

B4: Peptide P32, Ac-RHYPYWR-OH (peptide)
peptide: Ac-RHYPYWR-OH
notes: Synthetic, computationally designed heptapeptide based on the C-terminus of C5a
Consider B4, for which, in test [1], the “C5a2-β-arrestin 2 BRET Recruitment (% of C5a)” value is 28.8 % of C5a. The “fold higher efficacy of β-arrestin 2 recruitment than the affinity for C5a2” value in test [3] is approximately 37 fold. For the same molecule, the Ki stood at 234 µM in test [4] and 223 µM in test [2].
